Where no end group is shown, it is not given here.
Target: T1, enhanced GFP-tagged guanylyl cyclase/natriuretic peptide receptor-A (eGFP–NPRA fusion protein) (mouse, UniProt P18293 29-1057)
T1 sequence (looked up): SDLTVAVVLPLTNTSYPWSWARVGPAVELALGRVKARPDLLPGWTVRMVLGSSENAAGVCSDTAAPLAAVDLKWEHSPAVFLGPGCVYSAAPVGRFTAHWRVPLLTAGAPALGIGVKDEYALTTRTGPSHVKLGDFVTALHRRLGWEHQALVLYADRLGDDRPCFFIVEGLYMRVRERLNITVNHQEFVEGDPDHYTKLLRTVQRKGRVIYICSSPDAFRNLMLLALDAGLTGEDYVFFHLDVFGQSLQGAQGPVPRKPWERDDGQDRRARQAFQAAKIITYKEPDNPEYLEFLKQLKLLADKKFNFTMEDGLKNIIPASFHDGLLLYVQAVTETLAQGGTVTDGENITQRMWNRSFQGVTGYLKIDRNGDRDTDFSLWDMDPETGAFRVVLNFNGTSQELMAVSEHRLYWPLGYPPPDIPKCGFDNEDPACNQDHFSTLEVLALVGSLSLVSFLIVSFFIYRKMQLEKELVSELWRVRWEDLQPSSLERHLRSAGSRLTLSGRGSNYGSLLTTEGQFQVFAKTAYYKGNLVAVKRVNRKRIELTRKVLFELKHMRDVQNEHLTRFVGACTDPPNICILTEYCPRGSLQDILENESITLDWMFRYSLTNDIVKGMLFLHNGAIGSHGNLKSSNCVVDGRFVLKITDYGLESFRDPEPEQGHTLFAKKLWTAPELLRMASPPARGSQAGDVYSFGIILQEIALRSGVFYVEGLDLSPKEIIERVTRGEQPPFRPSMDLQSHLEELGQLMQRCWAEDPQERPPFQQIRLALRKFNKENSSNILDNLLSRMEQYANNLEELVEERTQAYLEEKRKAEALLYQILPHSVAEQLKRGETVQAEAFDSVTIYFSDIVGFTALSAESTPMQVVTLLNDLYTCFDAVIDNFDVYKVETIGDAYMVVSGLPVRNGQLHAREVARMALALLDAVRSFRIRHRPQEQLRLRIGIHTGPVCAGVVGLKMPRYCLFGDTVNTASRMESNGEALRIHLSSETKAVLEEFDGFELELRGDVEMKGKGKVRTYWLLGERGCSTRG
Assay: cell-based or functional assay

B1: Atrial natriuretic peptide (ANP), 125I-labelled (ligand, rat, UniProt P01161 123-150, looked up)
peptide: SLRRSSCFGGRIDRIGAQSGLGCNSFRY
modifications: ends and bridges not checked; also: 125I label (residue not given here)
- cGMP immunofluorescence intensity in intact cells treated with 100 nM ANP (unlabelled) for 1, 5, 10, 15 and 30 min, fold over untreated cells: 27 fold

From paper PMC4626869, “Subcellular trafficking of guanylyl cyclase/natriuretic peptide receptor-A with concurrent generation of intracellular cGMP” (Bioscience Reports, 2015)
